17 molecules from patent US20170296628A1 (GRIFFON PHARMACEUTICALS, published 2017) can be followed below.

The labels stand for the following.
T1: human GHRH receptor (human, UniProt Q02643 23-423)
T1 sequence (looked up): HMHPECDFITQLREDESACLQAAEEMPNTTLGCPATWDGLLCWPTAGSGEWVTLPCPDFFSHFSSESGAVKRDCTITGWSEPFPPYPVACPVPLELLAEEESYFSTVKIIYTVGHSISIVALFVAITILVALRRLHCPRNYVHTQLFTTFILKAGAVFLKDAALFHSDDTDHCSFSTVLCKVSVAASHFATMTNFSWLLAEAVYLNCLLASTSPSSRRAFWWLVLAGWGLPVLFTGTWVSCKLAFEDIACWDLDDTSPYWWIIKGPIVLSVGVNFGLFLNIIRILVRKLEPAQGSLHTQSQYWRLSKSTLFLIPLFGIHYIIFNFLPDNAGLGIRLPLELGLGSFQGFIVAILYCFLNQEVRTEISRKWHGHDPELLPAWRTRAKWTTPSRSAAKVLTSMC

B1: Analog 15 (C9) (peptide)
peptide: Y[dA]DAIFTACYR[Orn]VLAQLSAR[Orn]ALQDILS[hArg]-NH2
modifications: not fully specified (residue 9); printed as YaDAIFTAC(Peg-5K)YROVLAQLSAROALQDILS(Har)-NH2

Non-standard residues stand in square brackets, D forms with d. No end group written: not given here. hArg = N=C(N)NCCCC[C@H](N)C(=O)O; Orn = NCCC[C@H](N)C(=O)O

For the first test, the target named is T1, human GHRH receptor. Briefly: cell-based or functional assay.
As for Y[dA]DAIFTAC(PEG 40 kDa)YR[Orn]VLAQLSAR[Orn]ALQDILS[hArg]-NH2 [Analog 16 (C9)], the “EC50 (nM), Hit Hunter cAMP agonist assay” value was found to be 0.74 nM; the “Max. response (%)” value is 93.7%; the “Potency (%) (% EC50 compared to baseline)” value (“Potency (%)” below) amounted to 200%.

As to YADAIFTNSYRKVLGQLSARKLLQDIMSX (C-terminal amide) [Human GHRH1-29], the “Max. response (%)” value stood at 113% and the “Potency (%)” value was found to be 100%.

On to Y[dA]DAIFTAC(PEG 2 kDa)YR[Orn]VLAQLSAR[Orn]ALC(PEG 2 kDa)DILSRN-NH2 [Analog 13 (C9,24)], for which the “EC50 (nM), Hit Hunter cAMP agonist assay” value was found to be 0.41 nM; the “Max. response (%)” value worked out at 103%; the “Potency (%)” value came out at 361%.

As for Y[dA]DAIFTAC(PEG 2 kDa)YR[Orn]VLAQLSAR[Orn]ALQDILC(PEG 2 kDa)RN-NH2 [Analog 12 (C9,28)], the “Max. response (%)” value stood at 102% and the “Potency (%)” value came to 416%.

On to Y[dA]DAIFTAC(PEG 2 kDa)YR[Orn]VLAQLSAR[Orn]C(PEG 2 kDa)LQDILSRN-NH2 [Analog 14 (C9,22)], for which the “EC50 (nM), Hit Hunter cAMP agonist assay” value turned out to be 0.73 nM; the “Max. response (%)” value is 97.2%; the “Potency (%)” value was 203%.

On to Y[dA]DAIFTAC(PEG 2 kDa)YR[Orn]VLAQLSAR[Orn]ALQDILS[hArg]-NH2 [Analog 10 (C9)], for which the “EC50 (nM), Hit Hunter cAMP agonist assay” value came to 0.11 nM; the “Max. response (%)” value was determined as 96.2%; the “Potency (%)” value was 1400%.

On to B1, for which the “EC50 (nM), Hit Hunter cAMP agonist assay” value worked out at 0.22 nM; the “Max. response (%)” value is 94.3%; the “Potency (%)” value is 669%.

Take Y[dA]DAIFTAC(PEG 2 kDa)YR[Orn]VLAQLSAR[Orn]ALQDILSRNC(PEG 2 kDa)-NH2 [Analog 11 (C9,31)]: the “EC50 (nM), Hit Hunter cAMP agonist assay” value was found to be 0.47 nM; the “Max. response (%)” value was found to be 97.2%; the “Potency (%)” value was 314%.

For a further test, the target named is T1, human GHRH receptor. Briefly: cell-based or functional assay. The source holds these as a separate data set.
Y[dA]DAIFTASYR[Orn]VLC(PEG 2 kDa)QLSAR[Orn]ALQDILSKN-NH2 [Analog 5 (C15)]: the “EC50 (nM), Hit Hunter cAMP agonist assay” value came out at 1.38 nM; the “Max Response (%)” value was 107%; the “Potency (%)” value stood at 26%.

Consider Y[dA]DAIFTASYR[Orn]VLAQLSC(PEG 2 kDa)R[Orn]ALQDILSKN-NH2 [Analog 4 (C19)], for which the “EC50 (nM), Hit Hunter cAMP agonist assay” value stood at 1.32 nM; the “Max Response (%)” value amounted to 94.9%; the “Potency (%)” value was 27%.

On to Y[dA]DAIFTASYR[Orn]VLAQLSAR[Orn]ALQDILC(PEG 2 kDa)KN-NH2 [Analog 1 (C28)], for which the “EC50 (nM), Hit Hunter cAMP agonist assay” value amounted to 0.29 nM; the “Max Response (%)” value is 105%; the “Potency (%)” value came to 125%.

On to YADAIFTNSYRKVLGQLSARKLLQDIMSX (C-terminal amide) [Human GHRH1-29], for which the “Max Response (%)” value came to 104% and the “Potency (%)” value stood at 100%.

For the molecule Y[dA]DAIFTASYR[Orn]VLAQLSAR[Orn]C(PEG 2 kDa)LQDILSKN-NH2 [Analog 3 (C22)], the “EC50 (nM), Hit Hunter cAMP agonist assay” value turned out to be 0.25 nM; the “Max Response (%)” value worked out at 100%; the “Potency (%)” value was 143%.

With Y[dA]DAIFTC(PEG 2 kDa)SYR[Orn]VLAQLSAR[Orn]ALQDILSKN-NH2 [Analog 7 (C8)], the “EC50 (nM), Hit Hunter cAMP agonist assay” value was found to be 0.69 nM; the “Max Response (%)” value was 108%; the “Potency (%)” value came out at 52%.

As to Y[dA]DAIFTASYR[Orn]VLAC(PEG 2 kDa)LSAR[Orn]ALQDILSKN-NH2 [Analog 9 (C16)], the “EC50 (nM), Hit Hunter cAMP agonist assay” value is 0.92 nM; the “Max Response (%)” value was 107%; the “Potency (%)” value worked out at 39%.

For Y[dA]DAIFTASYR[Orn]VLAQLSAR[Orn]ALQDC(PEG 2 kDa)LSKN-NH2 [Analog 8 (C26)], the “EC50 (nM), Hit Hunter cAMP agonist assay” value amounted to 0.98 nM; the “Max Response (%)” value was 106%; the “Potency (%)” value came to 37%.

As to Y[dA]DAIFTASYR[Orn]VLAQLSAR[Orn]ALC(PEG 2 kDa)DILSKN-NH2 [Analog 2 (C24)], the “EC50 (nM), Hit Hunter cAMP agonist assay” value is 0.28 nM; the “Max Response (%)” value was found to be 108%; the “Potency (%)” value is 130%.

With Y[dA]DAIFTAC(PEG 2 kDa)YR[Orn]VLAQLSAR[Orn]ALQDILSKN-NH2 [Analog 6 (C9)], the “EC50 (nM), Hit Hunter cAMP agonist assay” value came out at 0.29 nM; the “Max Response (%)” value turned out to be 102%; the “Potency (%)” value stood at 123%.
